In patent US20140221622A1 one finds IC50 data, which are given here for 1 substance.

pIC50: −log10 of the molar value.

The term pIC50 denotes −log10 of the IC50, conventionally taken in molar units. Low values mean a high IC50, high ones a low IC50.

For the test, the target named is biotin-labeled cMet (UniProt P08581). Nature of the test: indirect ELISA: antibody captured on anti-IgG Fc coated plate, biotin-labeled cMet detected with streptavidin-HRP, OD450; fit value of a flat control curve, unit taken from the axis. On the technique in general: An ELISA detects its analyte on a solid surface through an enzyme-linked reagent.
biotin-labeled cMet, sequence (P08581 25-932 limits assumed): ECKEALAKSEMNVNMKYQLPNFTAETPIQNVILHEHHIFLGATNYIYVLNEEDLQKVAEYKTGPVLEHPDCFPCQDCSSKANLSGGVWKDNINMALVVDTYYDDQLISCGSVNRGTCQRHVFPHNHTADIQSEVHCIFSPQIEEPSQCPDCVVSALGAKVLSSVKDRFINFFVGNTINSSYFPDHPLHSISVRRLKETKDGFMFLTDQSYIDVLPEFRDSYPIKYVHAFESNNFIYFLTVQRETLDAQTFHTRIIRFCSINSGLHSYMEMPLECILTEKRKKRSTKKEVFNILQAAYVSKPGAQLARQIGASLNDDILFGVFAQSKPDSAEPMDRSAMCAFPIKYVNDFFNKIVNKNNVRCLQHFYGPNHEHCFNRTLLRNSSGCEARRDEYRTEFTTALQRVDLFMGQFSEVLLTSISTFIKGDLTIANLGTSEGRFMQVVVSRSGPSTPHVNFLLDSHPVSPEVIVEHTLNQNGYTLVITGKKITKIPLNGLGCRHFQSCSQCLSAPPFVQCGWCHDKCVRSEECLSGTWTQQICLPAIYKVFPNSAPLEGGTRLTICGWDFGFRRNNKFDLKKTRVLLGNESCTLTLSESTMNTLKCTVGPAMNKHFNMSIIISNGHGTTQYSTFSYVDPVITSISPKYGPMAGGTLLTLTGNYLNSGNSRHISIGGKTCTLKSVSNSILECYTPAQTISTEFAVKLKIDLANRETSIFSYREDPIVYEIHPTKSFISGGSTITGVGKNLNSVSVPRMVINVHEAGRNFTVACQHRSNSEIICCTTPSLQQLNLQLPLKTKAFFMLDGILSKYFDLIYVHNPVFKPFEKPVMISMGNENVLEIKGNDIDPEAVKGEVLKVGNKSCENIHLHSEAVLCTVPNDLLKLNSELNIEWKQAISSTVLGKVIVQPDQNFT

For IL-1β (antibody), the pIC50 was 8.96.
